Like-named read-outs stand apart in the source and are kept apart here.
Columns and labels:
[1] = molecular target: native Tsal proteins in G. m. morsitans saliva (Glossina morsitans morsitans (endogenous in saliva)); assay: SPR; 4000 RU G. m. morsitans saliva amine-coupled (10 mM sodium acetate pH 4.5) on a CM5 chip; purified Nb analytes 500 to 0.976 nM; BIAcore T200; contact 180 s, dissociation 600 s, 10 ul/min; Langmuir 1:1 fit
[2] = molecular target: native Tsal proteins in G. m. morsitans saliva (Glossina morsitans morsitans (endogenous in saliva)); assay: ELISA; competitive ELISA: 250 ng G. m. morsitans saliva coated per well, plasma (immune, naive or control) applied 1 h, then HRP-conjugated Nb (1:160 or 1:320) 1 h; ABTS, O.D. 405 nm
[3] = molecular target: native Tsal proteins in G. m. morsitans saliva (Glossina morsitans morsitans (endogenous in saliva)); assay: as above; remark: listed apart in the source

B1: TsalNb-1 (VHH)
VHH: QVQLQESGGGLVQVGGSLRLSCTASGSIFSINYANWYRQAPGKQRELVAGITSDGSTNYADSVKGRFTISRDNAKNTVYLQMNRLTPEDTAVYYCKPRAWLTGRWENYWGQGTQVTVSS
Kd [1]: 0.44 nM | koff [1]: 0.00037 s⁻¹ | kon [1]: 850000 M⁻¹ s⁻¹

B2: TsalNb-4 (VHH)
VHH: QVQLQESGGGLVQVGGSLRLSCTASGSIFSINYAGWYRQAPGKQRELVAGITSGGSTNYADSVKGRFTISRDSAKNTVYLQMNSLKAEDTAVYYCKPRAWLTGRWENYWGQGTQVTVSS
Kd [1]: 0.44 nM | koff [1]: 0.0005 s⁻¹ | kon [1]: 1.1e+06 M⁻¹ s⁻¹

B3: TsalNb-10 (VHH)
VHH: QVQLQESGGGLVQVGGSLRLSCAASGSIFSNNYMGWYRQAPGKQRELVAGITSGGSTNYADSVKGRFTISRDNAKNTVYLQMNNLKPEDTAVYNCKPRGWLTGRWENYWGQGTQVTVSS
Kd [1]: 0.79 nM | koff [1]: 0.001 s⁻¹ | kon [1]: 1.3e+06 M⁻¹ s⁻¹

B4: TsalNb-12 (VHH)
VHH: QVQLQESGGGLVQPGGSLRLSCTASGSIFSINYANWYRQAPGKQRELVAGITSDGSTNYADSVKGRFTISRDNAKNTVYLQMNRLTPEDTAVYYCKPRAWLTGRWENYWGQGTQVTVSS
Kd [1]: 0.47 nM | koff [1]: 0.00039 s⁻¹ | kon [1]: 830000 M⁻¹ s⁻¹

B5: TsalNb-5 (VHH)
VHH: QVQLQESGGGLVQPGGSLRLSCAGSGLTLDYYAMGWYRQAPGKQREGVSCITSSGGRTNYADSVKGRFTISRDNAKNTVSLQMNSLKPEDTAVYYCAATEWLAGTKCLLSHEYDYWGQGTQVTVSS
Kd [1]: 4.4 nM | koff [1]: 0.004 s⁻¹ | kon [1]: 910000 M⁻¹ s⁻¹

B6: TsalNb-8 (VHH)
VHH: QVQLQESGGGLVQPGGSLRLSCAASVLTLDYYAMAWYRQAPGKQREGVSCITSSGGRTNYADSVKGRFTISRDNAKNMVYLQMNSLKPEDTAVYYCAATEWLAGTKCLSSHEYDYWGQGTQVTVSS
Kd [1]: 18 nM | koff [1]: 0.017 s⁻¹ | kon [1]: 970000 M⁻¹ s⁻¹

B7: TsalNb-11 (VHH)
VHH: QVQLQESGGGLVQPGESLRLSCAASEFTLDYYAMAWYRQAPGKQREGVSCITSSGGRTNYADSVKGRFTISRENGKNTVYLQMSSLKPGDTAVYYCAATEWLAGTKCLGSHEYDYWGQGTQVTVSS
Kd [1]: 2.7 nM | koff [1]: 0.0035 s⁻¹ | kon [1]: 1.3e+06 M⁻¹ s⁻¹

B8: TsalNb-2 (VHH)
VHH: QVQLQESGGGLVQVGGSLRLSCQASGSIFSNSYMGWYRQAPGKQRELVAGITSGGSTNYADSVKGRFTISRDNAKNTVYLQMNSLKPEDTAVYYCKPRAWLTGRWENYWGQGTQVTVSS
Kd [1]: 0.64 nM | koff [1]: 0.00077 s⁻¹ | kon [1]: 1.2e+06 M⁻¹ s⁻¹

B9: TsalNb-5-HRP (VHH)
VHH: QVQLQESGGGLVQPGGSLRLSCAGSGLTLDYYAMGWYRQAPGKQREGVSCITSSGGRTNYADSVKGRFTISRDNAKNTVSLQMNSLKPEDTAVYYCAATEWLAGTKCLLSHEYDYWGQGTQVTVSS
mean endpoint O.D.405nm of controls (control porcine plasma) [2]: 2.23 O.D._(405nm) | mean endpoint O.D.405nm of controls (control mouse plasma) [3]: 2.26 O.D._(405nm) | mean endpoint O.D.405nm of controls (control porcine plasma) [3]: 2.31 O.D._(405nm)

B10: TsalNb-11-HRP (VHH)
VHH: QVQLQESGGGLVQPGESLRLSCAASEFTLDYYAMAWYRQAPGKQREGVSCITSSGGRTNYADSVKGRFTISRENGKNTVYLQMSSLKPGDTAVYYCAATEWLAGTKCLGSHEYDYWGQGTQVTVSS
mean endpoint O.D.405nm of controls (control porcine plasma) [2]: 2.29 O.D._(405nm) | mean endpoint O.D.405nm of controls (control mouse plasma) [3]: 2.35 O.D._(405nm) | mean endpoint O.D.405nm of controls (control porcine plasma) [3]: 2.24 O.D._(405nm)

B11: TsalNb-3 (VHH)
VHH: QVQLQESGGGLVQVGGSLRLSCAVSGSIFSNNYMGWYRQAPGKQRELVAGITSGGSTNYADSVKGRFTISRDNAKNTVYLQMNSLLPEDTAVYYCKPRGWLTGRWENYWGQGTQVTVSS
Kd [1]: 0.54 nM | koff [1]: 0.00051 s⁻¹ | kon [1]: 930000 M⁻¹ s⁻¹

Source: article PMC4320081
